T1: human FcγRIIb extracellular domain with C-terminal His tag (human, UniProt P31994 43-217)
T1 sequence (looked up): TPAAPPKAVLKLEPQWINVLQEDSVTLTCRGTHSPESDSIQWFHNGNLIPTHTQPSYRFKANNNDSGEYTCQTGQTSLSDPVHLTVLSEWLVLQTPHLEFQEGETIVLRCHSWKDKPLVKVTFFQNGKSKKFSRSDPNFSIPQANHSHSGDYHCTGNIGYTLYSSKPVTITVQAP


Assays:
[1] = molecular target: T1, human FcγRIIb extracellular domain with …; test: SPR
[2] = molecular target: T1, human FcγRIIb extracellular domain with …; test: SPR; remark: listed apart in the source

Binder	KD (IIaH)/KD (IIb) [1]	KD (IIaR)/KD (IIb) [2]
BP504 (antibody, human IgG1, kappa) heavy: QVQLQESGPGLVKPSETLSLTCAVSGHSISHDHAWSWVRQPPGEGLEWIGFISYSGITNYNPSLQGRVTISRDNSKNTLYLQMNSLRAEDTAVYYCARSLARTTAMDYWGEGTLVTVSSASTKGPSVFPLAPSSKSTSGGTAALGCLVKDYFPEPVTVSWNSGALTSGVHTFPAVLQSSGLYSLSSVVTVPSSSLGTQTYICNVNHKPSNTKVDKKVEPKSCDKTHTCPPCPAPDLLGDDSVFLFPPKPKDTLMISRTPEVTCVVIDVAEEDGPVKFNWYVDGVEVHNAKTKPREEQYNSTYRVVSVLTVLHQDWLNGKEYKCKVSNKALPAPIEKTISKAKGQPREPQVYTLPPSRDELTKNQVSLTCLVKGFYPSDIAVEWESNGQPENNYKTTPPVLDSDGSFFLYSKLTVDKSRWQQGNVFSCSVMHEALHNHYTQESLSLSP light: not shown	658	18.5
BP509 (antibody, human IgG1, kappa) heavy: QVQLQESGPGLVKPSETLSLTCAVSGHSISHDHAWSWVRQPPGEGLEWIGFISYSGITNYNPSLQGRVTISRDNSKNTLYLQMNSLRAEDTAVYYCARSLARTTAMDYWGEGTLVTVSSASTKGPSVFPLAPSSKSTSGGTAALGCLVKDYFPEPVTVSWNSGALTSGVHTFPAVLQSSGLYSLSSVVTVPSSSLGTQTYICNVNHKPSNTKVDKKVEPKSCDKTHTCPPCPAPDLLGDDSVFLFPPKPKDTLMISRTPEVTCVVIDVAEEDGDVKFNWYVDGVEVHNAKTKPREEQDNSTYRVVSVLTVLHQDWLNGKEYKCKVSNKALPAPIEKTISKAKGQPREPQVYTLPPSRDELTKNQVSLTCLVKGFYPSDIAVEWESNGQPENNYKTTPPVLDSDGSFFLYSKLTVDKSRWQQGNVFSCSVMHEALHNHYTQESLSLSP light: not shown	444	29.2
BP562 (antibody, human IgG1, kappa) heavy: QVQLQESGPGLVKPSETLSLTCAVSGHSISHDHAWSWVRQPPGEGLEWIGFISYSGITNYNPSLQGRVTISRDNSKNTLYLQMNSLRAEDTAVYYCARSLARTTAMDYWGEGTLVTVSSASTKGPSVFPLAPSSKSTSGGTAALGCLVKDYFPEPVTVSWNSGALTSGVHTFPAVLQSSGLYSLSSVVTVPSSSLGTQTYICNVNHKPSNTKVDKKVEPKSCDKTHTCPPCPAPELLGDDSVFLFPPKPKDTLMISRTPEVTCVVVDVSDEDGDVKFNWYVDGVEVHNAKTKPREEQDNSTYRVVSVLTVLHQDWLNGKEYKCKVSNKALPRPIEKTISKAKGQPREPQVYTLPPSRDELTKNQVSLTCLVKGFYPSDIAVEWESNGQPENNYKTTPPVLDSDGSFFLYSKLTVDKSRWQQGNVFSCSVMHEALHNHYTQESLSLSP light: not shown	466	20
BP508 (antibody, human IgG1, kappa) heavy: QVQLQESGPGLVKPSETLSLTCAVSGHSISHDHAWSWVRQPPGEGLEWIGFISYSGITNYNPSLQGRVTISRDNSKNTLYLQMNSLRAEDTAVYYCARSLARTTAMDYWGEGTLVTVSSASTKGPSVFPLAPSSKSTSGGTAALGCLVKDYFPEPVTVSWNSGALTSGVHTFPAVLQSSGLYSLSSVVTVPSSSLGTQTYICNVNHKPSNTKVDKKVEPKSCDKTHTCPPCPAPDLLGDDSVFLFPPKPKDTLMISRTPEVTCVVIDVAEEDGPVKFNWYVDGVEVHNAKTKPREEQDNSTYRVVSVLTVLHQDWLNGKEYKCKVSNKALPAPIEKTISKAKGQPREPQVYTLPPSRDELTKNQVSLTCLVKGFYPSDIAVEWESNGQPENNYKTTPPVLDSDGSFFLYSKLTVDKSRWQQGNVFSCSVMHEALHNHYTQESLSLSP light: not shown	962	26
BP560 (antibody, human IgG1, kappa) heavy: QVQLQESGPGLVKPSETLSLTCAVSGHSISHDHAWSWVRQPPGEGLEWIGFISYSGITNYNPSLQGRVTISRDNSKNTLYLQMNSLRAEDTAVYYCARSLARTTAMDYWGEGTLVTVSSASTKGPSVFPLAPSSKSTSGGTAALGCLVKDYFPEPVTVSWNSGALTSGVHTFPAVLQSSGLYSLSSVVTVPSSSLGTQTYICNVNHKPSNTKVDKKVEPKSCDKTHTCPPCPAPELLGGDSVFLFPPKPKDTLMISRTPEVTCVVVDVGEEDGEVKFNWYVDGVEVHNAKTKPREEQDNSTYRVVSVLTVLHQDWLNGKEYKCKVSNKALPRPIEKTISKAKGQPREPQVYTLPPSRDELTKNQVSLTCLVKGFYPSDIAVEWESNGQPENNYKTTPPVLDSDGSFFLYSKLTVDKSRWQQGNVFSCSVMHEALHNHYTQESLSLSP light: not shown	168	22.8

Results, then the binder that gave them:

KD (IIaH)/KD (IIb) [1]	KD (IIaR)/KD (IIb) [2]	Binder
1030	28.9	IL6R-BP500/IL6R-L (antibody, human IgG1, kappa) heavy: QVQLQESGPGLVKPSETLSLTCAVSGHSISHDHAWSWVRQPPGEGLEWIGFISYSGITNYNPSLQGRVTISRDNSKNTLYLQMNSLRAEDTAVYYCARSLARTTAMDYWGEGTLVTVSSASTKGPSVFPLAPSSKSTSGGTAALGCLVKDYFPEPVTVSWNSGALTSGVHTFPAVLQSSGLYSLSSVVTVPSSSLGTQTYICNVNHKPSNTKVDKKVEPKSCDKTHTCPPCPAPELLGDDSVFLFPPKPKDTLMISRTPEVTCVVIDVAEEDGEVKFNWYVDGVEVHNAKTKPREEQDNSTYRVVSVLTVLHQDWLNGKEYKCKVSNKALPAPIEKTISKAKGQPREPQVYTLPPSRDELTKNQVSLTCLVKGFYPSDIAVEWESNGQPENNYKTTPPVLDSDGSFFLYSKLTVDKSRWQQGNVFSCSVMHEALHNHYTQESLSLSP light: not shown
352	28.5	IL6R-BP502/IL6R-L (antibody, human IgG1, kappa) heavy: QVQLQESGPGLVKPSETLSLTCAVSGHSISHDHAWSWVRQPPGEGLEWIGFISYSGITNYNPSLQGRVTISRDNSKNTLYLQMNSLRAEDTAVYYCARSLARTTAMDYWGEGTLVTVSSASTKGPSVFPLAPSSKSTSGGTAALGCLVKDYFPEPVTVSWNSGALTSGVHTFPAVLQSSGLYSLSSVVTVPSSSLGTQTYICNVNHKPSNTKVDKKVEPKSCDKTHTCPPCPAPDLLGDDSVFLFPPKPKDTLMISRTPEVTCVVIDVAEEDGEVKFNWYVDGVEVHNAKTKPREEQDNSTYRVVSVLTVLHQDWLNGKEYKCKVSNKGLPRPIEKTISKAKGQPREPQVYTLPPSRDELTKNQVSLTCLVKGFYPSDIAVEWESNGQPENNYKTTPPVLDSDGSFFLYSKLTVDKSRWQQGNVFSCSVMHEALHNHYTQESLSLSP light: not shown
503	33.2	IL6R-BP503/IL6R-L (antibody, human IgG1, kappa) heavy: QVQLQESGPGLVKPSETLSLTCAVSGHSISHDHAWSWVRQPPGEGLEWIGFISYSGITNYNPSLQGRVTISRDNSKNTLYLQMNSLRAEDTAVYYCARSLARTTAMDYWGEGTLVTVSSASTKGPSVFPLAPSSKSTSGGTAALGCLVKDYFPEPVTVSWNSGALTSGVHTFPAVLQSSGLYSLSSVVTVPSSSLGTQTYICNVNHKPSNTKVDKKVEPKSCDKTHTCPPCPAPDLLGDDSVFLFPPKPKDTLMISRTPEVTCVVIDVAEEDGEVKFNWYVDGVEVHNAKTKPREEQDNSTYRVVSVLTVLHQDWLNGKEYKCKVSNKGLPRPIEKTISKAKGQPREPQVYTLPPSRDELTKNQVSLTCLVKGFYPSDIAVEWESNGQPENNYKTTPMVLDSDGSFFLYSKLTVDKSRWQQGNVFSCSVMHEALHNHYTQESLSLSP light: not shown
1240	50.6	IL6R-BP511/IL6R-L (antibody, human IgG1, kappa) heavy: QVQLQESGPGLVKPSETLSLTCAVSGHSISHDHAWSWVRQPPGEGLEWIGFISYSGITNYNPSLQGRVTISRDNSKNTLYLQMNSLRAEDTAVYYCARSLARTTAMDYWGEGTLVTVSSASTKGPSVFPLAPSSKSTSGGTAALGCLVKDYFPEPVTVSWNSGALTSGVHTFPAVLQSSGLYSLSSVVTVPSSSLGTQTYICNVNHKPSNTKVDKKVEPKSCDKTHTCPPCPAPELLGDDSVFLFPPKPKDTLMISRTPEVTCVVIDVAEEDGPVKFNWYVDGVEVHNAKTKPREEQDNSTYRVVSVLTVLHQDWLNGKEYKCKVSNKALPRPIEKTISKAKGQPREPQVYTLPPSRDELTKNQVSLTCLVKGFYPSDIAVEWESNGQPENNYKTTPPVLDSDGSFFLYSKLTVDKSRWQQGNVFSCSVMHEALHNHYTQESLSLSP light: not shown
684	28.3	IL6R-BP533/IL6R-L (antibody, human IgG1, kappa) heavy: QVQLQESGPGLVKPSETLSLTCAVSGHSISHDHAWSWVRQPPGEGLEWIGFISYSGITNYNPSLQGRVTISRDNSKNTLYLQMNSLRAEDTAVYYCARSLARTTAMDYWGEGTLVTVSSASTKGPSVFPLAPSSKSTSGGTAALGCLVKDYFPEPVTVSWNSGALTSGVHTFPAVLQSSGLYSLSSVVTVPSSSLGTQTYICNVNHKPSNTKVDKKVEPKSCDKTHTCPPCPAPDLLGDDSVFLFPPKPKDTLMISRTPEVTCVVIDVGEEDGEVKFNWYVDGVEVHNAKTKPREEQDNSTYRVVSVLTVLHQDWLNGKEYKCKVSNKALPRPIEKTISKAKGQPREPQVYTLPPSRDELTKNQVSLTCLVKGFYPSDIAVEWESNGQPENNYKTTPLVLDSDGSFFLYSKLTVDKSRWQQGNVFSCSVMHEALHNHYTQESLSLSP light: not shown
525	29.1	BP563 (antibody, human IgG1, kappa) heavy: QVQLQESGPGLVKPSETLSLTCAVSGHSISHDHAWSWVRQPPGEGLEWIGFISYSGITNYNPSLQGRVTISRDNSKNTLYLQMNSLRAEDTAVYYCARSLARTTAMDYWGEGTLVTVSSASTKGPSVFPLAPSSKSTSGGTAALGCLVKDYFPEPVTVSWNSGALTSGVHTFPAVLQSSGLYSLSSVVTVPSSSLGTQTYICNVNHKPSNTKVDKKVEPKSCDKTHTCPPCPAPDLLGDDSVFLFPPKPKDTLMISRTPEVTCVVVDVSEEDGDVKFNWYVDGVEVHNAKTKPREEQDNSTYRVVSVLTVLHQDWLNGKEYKCKVSNKALPRPIEKTISKAKGQPREPQVYTLPPSRDELTKNQVSLTCLVKGFYPSDIAVEWESNGQPENNYKTTPPVLDSDGSFFLYSKLTVDKSRWQQGNVFSCSVMHEALHNHYTQESLSLSP light: not shown
